The labels stand for the following.
B1: Zinc finger protein ZFPM1 (Mus musculus), O35615 (parent)
chain: MSRRKQSNPRQIKRSLRDMEAGEEAKAMDSSPKEQEAPDPEAPAIEEPPSPPREDVSPPAVPAPPESPEDPEDMEGQELEMRPQDEEKEEKEEEAAMASPWSGPEELELALQDGQRCVRARLSLTEGLSWGPFYGSIQTRALSPEREEPGPAVTLMVDESCWLRMLPQVLTEEAANSEIYRKDDALWCRVTKVVPSGGLLYVRLVTEPHGAPRHPVQEPVEPGGLAPVHTDIQLLPQQAGMASILATAVINKDVFPCKDCGIWYRSERNLQAHLLYYCASRQRAGSPVSATEEKPKETYPNERVCPFPQCRKSCPSASSLEIHMRSHSGERPFVCLICLSAFTTKANCERHLKVHTDTLSGVCHNCGFISTTRDILYSHLVTNHMVCQPGSKGEIYSPGAGHPAAKLPPDSLAGFQQHSLMHSPLVPADKAPTPSSGLDSKAEVTNGETRVPPQNGGSSESPAAPRTIKVEAAEEPEATRASGPGEPGPQAPSRTPSPHSPNPVRVKTELSSPTPGSSPGPGELTMAGTLFLPQYVFSPDAGTTTVPTAPQASEILAKMSELVHNRLQQGAGSSGAAGTPTGLFSGTKGATCFECEITFNNINNFYVHKRLYCSGRRAPEDPPTVRRPKAATGPARAPAGAAAEPDPSRSSPGPGPREEEASGTTTPEAEAAGRGSEGSQSPGSSVDDAEDDPSRTLCEACNIRFSRHETYTVHKRYYCASRHDPPPRRPPAPTTAPGPAAPALTAPPVRTRRRRKLYELPAAGAPPPAAGPAPVPVVPSPTAELPSSPRPGSASAGPAPALSPSPVPDGPIDLSKRPRRQSPDAPTALPALADYHECTACRVSFHSLEAYLAHKKYSCPAAPLRTTALCPYCPPNGRVRGDLVEHLRQAHGLQVAKPAASPGAEPRTPAERAPRDSPDGRAPRSPSPAPENTPSDPADQGARTPSKGPPAPAPAPGGGGGHRYCRLCNIRFSSLSTFIAHKKYYCSSHAAEHVK

The variants in the test derive from B1. The conditions noted are these: with tacc3_mouse Tacc3, Q9JJ11.
Chain of tacc3_mouse Tacc3, Q9JJ11 (Q9JJ11 whole entry): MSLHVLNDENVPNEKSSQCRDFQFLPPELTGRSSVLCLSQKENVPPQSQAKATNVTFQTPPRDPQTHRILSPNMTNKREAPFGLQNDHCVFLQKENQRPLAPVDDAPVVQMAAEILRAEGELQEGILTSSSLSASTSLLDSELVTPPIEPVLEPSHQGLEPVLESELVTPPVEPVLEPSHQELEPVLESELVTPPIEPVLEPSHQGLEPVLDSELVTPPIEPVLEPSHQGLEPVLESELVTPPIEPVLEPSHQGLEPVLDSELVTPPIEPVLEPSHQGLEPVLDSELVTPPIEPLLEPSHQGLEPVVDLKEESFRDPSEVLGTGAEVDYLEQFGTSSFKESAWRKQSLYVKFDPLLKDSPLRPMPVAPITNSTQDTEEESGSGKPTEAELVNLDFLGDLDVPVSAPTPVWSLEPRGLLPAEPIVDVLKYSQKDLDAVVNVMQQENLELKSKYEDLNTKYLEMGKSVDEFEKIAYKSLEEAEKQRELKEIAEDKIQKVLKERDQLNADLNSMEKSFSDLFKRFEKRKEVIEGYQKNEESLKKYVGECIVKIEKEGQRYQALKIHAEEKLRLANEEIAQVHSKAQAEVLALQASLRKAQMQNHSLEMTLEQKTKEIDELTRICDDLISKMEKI
As for T344A, the “effect of a mutation on the interaction” value is on record as “decreasing interaction”. For R350A the value was “decreasing interaction”; for T343A, “decreasing interaction”. Next, V354A: “decreasing interaction”. Next, N347A: “decreasing interaction”.

These data come from IntAct's records for PubMed 15234987.
